In publication PMC6218797, “A Novel Thermostable GH3 β-Glucosidase from Talaromyce leycettanus with Broad Substrate Specificity and Significant Soybean Isoflavone Glycosides-Hydrolyzing Capability” (BioMed Research International, 2018):

T1: Bgl3B (Rasamsonia emersonii, UniProt A0A343J2C3)
T1 construct: pPIC9, secreted from Pichia pastoris GS115; N-glycosylated, about 100 kDa on SDS-PAGE
T1 sequence (A0A343J2C3 1-841): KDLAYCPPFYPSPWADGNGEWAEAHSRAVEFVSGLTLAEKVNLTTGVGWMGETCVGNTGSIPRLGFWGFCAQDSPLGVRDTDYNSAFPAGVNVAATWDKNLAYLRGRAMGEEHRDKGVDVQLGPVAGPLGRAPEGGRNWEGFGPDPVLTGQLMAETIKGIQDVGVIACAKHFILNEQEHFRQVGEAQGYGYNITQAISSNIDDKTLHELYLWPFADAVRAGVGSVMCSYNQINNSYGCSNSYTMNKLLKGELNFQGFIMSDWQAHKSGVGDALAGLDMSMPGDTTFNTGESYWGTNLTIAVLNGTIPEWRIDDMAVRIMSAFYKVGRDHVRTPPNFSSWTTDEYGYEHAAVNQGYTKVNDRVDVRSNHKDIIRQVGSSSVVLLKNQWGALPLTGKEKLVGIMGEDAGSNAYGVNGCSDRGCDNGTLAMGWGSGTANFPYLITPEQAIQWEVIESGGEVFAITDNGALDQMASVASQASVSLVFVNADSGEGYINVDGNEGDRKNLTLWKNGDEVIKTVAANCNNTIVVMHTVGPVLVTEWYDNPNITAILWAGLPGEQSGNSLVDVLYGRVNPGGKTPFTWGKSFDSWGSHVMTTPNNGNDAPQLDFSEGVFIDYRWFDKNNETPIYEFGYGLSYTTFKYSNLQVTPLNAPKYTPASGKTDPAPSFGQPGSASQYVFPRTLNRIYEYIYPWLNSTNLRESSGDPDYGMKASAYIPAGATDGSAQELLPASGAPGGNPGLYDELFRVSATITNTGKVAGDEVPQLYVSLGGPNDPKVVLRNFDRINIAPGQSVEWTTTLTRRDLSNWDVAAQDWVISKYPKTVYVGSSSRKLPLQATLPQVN

B1: Bgl3B (Rasamsonia emersonii) (protein)
chain: T1 sequence (A0A343J2C3 1-841)

Tests used:
Bgl3B = biological target: T1, Bgl3B; test: pNP release at […] nm, Dixon plot; assay type: biochemical; settings: substrate pNPG 3 or 4 mM; pH 4.5, 65°C, citric acid-Na2HPO4; inhibition mode not stated
purified protein = substrate: O=[N+]([O-])c1ccc(O[C@@H]2O[C@H](CO)[C@@H](O)[C@H](O)[C@H]2O)cc1; test: purified protein; settings: pH 4.5, 65°C, 5 min, 0.2-1.5 mM substrate

Row | Molecule | Ki (Bgl3B) [mM] | Km (purified protein) [µM] | kcat (purified protein) [s⁻¹]
1 | OC[C@H]1OC(O)[C@H](O)[C@@H](O)[C@@H]1O (stereo partly drawn) [glucose] | 7.1 |  | 
2 | B1 |  | 1030 | 714
